Literature values as cited in publication PMC3405059.

Molecular target: MSPβ beta chain (Homo sapiens) (UniProt P26927)
Experiment: SPR

Sequence of UniProt P26927 (P26927 484-711): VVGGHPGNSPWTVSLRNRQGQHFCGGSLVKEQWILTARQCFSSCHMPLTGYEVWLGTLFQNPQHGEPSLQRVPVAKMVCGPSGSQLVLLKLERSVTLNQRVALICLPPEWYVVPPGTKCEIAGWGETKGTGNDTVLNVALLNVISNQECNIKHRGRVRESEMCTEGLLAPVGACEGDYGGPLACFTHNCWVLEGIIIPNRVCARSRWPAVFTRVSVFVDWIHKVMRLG

Kd: 0.013 µM
Substance: RON ECD (from UniProt Q04912)
